Residue numbers refer to the chain shown, from its start.
T1: human PAC1 receptor (human, UniProt P41586 24-468)
T1 sequence: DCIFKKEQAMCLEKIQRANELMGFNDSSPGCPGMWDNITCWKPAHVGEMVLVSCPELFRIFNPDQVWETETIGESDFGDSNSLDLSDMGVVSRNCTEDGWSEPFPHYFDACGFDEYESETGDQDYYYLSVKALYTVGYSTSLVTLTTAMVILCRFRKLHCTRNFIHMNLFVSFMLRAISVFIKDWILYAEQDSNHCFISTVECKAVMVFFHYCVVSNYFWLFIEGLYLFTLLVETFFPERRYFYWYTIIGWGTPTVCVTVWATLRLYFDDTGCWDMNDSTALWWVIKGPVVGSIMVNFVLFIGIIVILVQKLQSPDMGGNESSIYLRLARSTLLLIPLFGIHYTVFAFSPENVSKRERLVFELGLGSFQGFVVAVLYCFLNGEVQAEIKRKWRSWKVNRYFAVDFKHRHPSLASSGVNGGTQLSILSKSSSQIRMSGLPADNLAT

B1: iPS:454885 (bispecific antibody, human IgG1, kappa, lambda, N297G)
light 1: QSVLTQPPSVSAAPGQKVTISCSGSSSNIGNNYVSWYQQLPGTAPKLLIYDNNKRPSGIPDRFSGSKSGTSTTLGITGLQTGDEADYYCGTWDSRLSAVVFGGGTKLTVLGQPKAAPSVTLFPPSSEELQANKATLVCLISDFYPGAVTVAWKADSSPVKAGVETTTPSKQSNNKYAAKSYLSLTPEQWKSHRSYSCQVTHEGSTVEKTVAPTECS
heavy 1: QVQLVESGGGVVQPGRSLRLSCAASGFTFSSFGMHWVRQAPGKGLEWVAVISFDGSIKYSVDSVKGRFTISRDNSKNTLFLQMNSLRAEDTAVYYCARDRLNYYRSFGYYGYHYYGMAVWGQGTTVTVSSASTKGPSVFPLAPSSKSTSGGTAALGCLVKDYFPEPVTVSWNSGALTSGVHTFPAVLQSSGLYSLESVVTVPSSSLGTQTYICNVNHKPSNTKVDKKVEPKSCDKTHTCPPCPAPELLGGPSVFLFPPKPKDTLMISRTPEVTCVVVDVSHEDPEVKFNWYVDGVEVHNAKTKPCEEQYGSTYRCVSVLTVLHQDWLNGKEYKCKVSNKALPAPIEKTISKAKGQPREPQVYTLPPSRKKMTKNQVSLTCLVKGFYPSDIAVEWESNGQPENNYKTTPPVLKSDGSFFLYSKLTVDKSRWQQGNVFSCSVMHEALHNHYTQKSLSLSPGK
light 2: EIVLTQSPATLSLSPGERATLSCRASKSVGRSLHWYQQKPGQAPRLLIKYASQSLSGIPARFSGSGSGTDFTLTISSLEPEDFAVYYCHQSSRLPFTFGPGTKVDIKRTVAAPSVFIFPPSDEQLKSGTASVVCLLNNFYPREAKVQWKVDNALQSGNSQESVTEQDSKDSTYSLESTLTLSKADYEKHKVYACEVTHQGLSSPVTKSFNRGEC
heavy 2: not shown
B2: iPS:454911 (bispecific antibody, human IgG1, kappa, lambda, N297G)
light 1: B1 light 1
heavy 1: B1 heavy 1
light 2: B1 light 2 with R31W
heavy 2: not shown
B3: iPS:454889 (bispecific antibody, human IgG1, kappa, lambda, N297G)
light 1: B1 light 1
heavy 1: B1 heavy 1
light 2: B1 light 2
heavy 2: not shown
B4: iPS:454569 (bispecific antibody, human IgG1, kappa, lambda, N297G)
light 1: B1 light 1 with S26Y, N31R, N32Y, Y33S, T72A
heavy 1: B1 heavy 1 with R105E, F107S, G111H, H113K, K370E
light 2: B1 light 2
heavy 2: not shown
B5: iPS:454583 (bispecific antibody, human IgG1, kappa, lambda, N297G)
light 1: B1 light 1 with S26Y, N31R, N32Y, Y33S, T72A
heavy 1: B1 heavy 1 with R105E, F107S, G111H, H113K, K370E
light 2: B1 light 2 with R31W
heavy 2: not shown
B6: iPS:454899 (bispecific antibody, human IgG1, kappa, lambda, N297G)
light 1: B1 light 1
heavy 1: B1 heavy 1
light 2: B1 light 2
heavy 2: not shown
B7: iPS:454919 (bispecific antibody, human IgG1, kappa, lambda, N297G)
light 1: B1 light 1
heavy 1: B1 heavy 1
light 2: B1 light 2 with R31Y
heavy 2: not shown
B8: iPS:454903 (bispecific antibody, human IgG1, kappa, lambda, N297G)
light 1: B1 light 1
heavy 1: B1 heavy 1
light 2: B1 light 2 with R31W
heavy 2: not shown
B9: iPS:454891 (bispecific antibody, human IgG1, kappa, lambda, N297G)
light 1: B1 light 1
heavy 1: B1 heavy 1
light 2: B1 light 2 with K27Q
heavy 2: not shown
B10: iPS:571009 (5602) (bispecific antibody, human IgG1, kappa, lambda, N297G)
light 1: B1 light 1 with S26Y, N31R, N32Y, Y33S, T72A
heavy 1: B1 heavy 1 with R105E, F107S, G111H, H113K, K370E
light 2: B1 light 2
heavy 2: not shown
B11: iPS:454909 (bispecific antibody, human IgG1, kappa, lambda, N297G)
light 1: B1 light 1
heavy 1: B1 heavy 1
light 2: B1 light 2 with R31W
heavy 2: not shown
B12: iPS:454565 (5606) (bispecific antibody, human IgG1, kappa, lambda, N297G)
light 1: B1 light 1 with S26Y, N31R, N32Y, Y33S, T72A
heavy 1: B1 heavy 1 with R105E, F107S, G111H, H113K, K370E
light 2: B1 light 2
heavy 2: not shown
B13: iPS:454905 (bispecific antibody, human IgG1, kappa, lambda, N297G)
light 1: B1 light 1
heavy 1: B1 heavy 1
light 2: B1 light 2 with R31W
heavy 2: not shown
B14: iPS:454915 (bispecific antibody, human IgG1, kappa, lambda, N297G)
light 1: B1 light 1
heavy 1: B1 heavy 1
light 2: B1 light 2 with R31W
heavy 2: not shown
B15: iPS:454893 (bispecific antibody, human IgG1, kappa, lambda, N297G)
light 1: B1 light 1
heavy 1: B1 heavy 1
light 2: B1 light 2 with K27Q
heavy 2: not shown
B16: iPS:454913 (bispecific antibody, human IgG1, kappa, lambda, N297G)
light 1: B1 light 1
heavy 1: B1 heavy 1
light 2: B1 light 2 with R31W
heavy 2: not shown
B17: iPS:454917 (bispecific antibody, human IgG1, kappa, lambda, N297G)
light 1: B1 light 1
heavy 1: B1 heavy 1
light 2: B1 light 2 with R31W
heavy 2: not shown
B18: iPS:454907 (bispecific antibody, human IgG1, kappa, lambda, N297G)
light 1: B1 light 1
heavy 1: B1 heavy 1
light 2: B1 light 2 with R31W
heavy 2: not shown
B19: iPS:454887 (bispecific antibody, human IgG1, kappa, lambda, N297G)
light 1: B1 light 1
heavy 1: B1 heavy 1
light 2: B1 light 2
heavy 2: not shown
B20: iPS:454897 (bispecific antibody, human IgG1, kappa, lambda, N297G)
light 1: B1 light 1
heavy 1: B1 heavy 1
light 2: B1 light 2
heavy 2: not shown
B21: iPS:454895 (bispecific antibody, human IgG1, kappa, lambda, N297G)
light 1: B1 light 1
heavy 1: B1 heavy 1
light 2: B1 light 2 with K27Q
heavy 2: not shown
B22: iPS:571015 (5603) (bispecific antibody, human IgG1, kappa, lambda, N297G)
light 1: B1 light 1 with S26Y, N31R, N32Y, Y33S, T72A
heavy 1: B1 heavy 1 with R105E, F107S, G111H, H113K, K369E
light 2: B1 light 2
heavy 2: not shown
B23: iPS:454901 (bispecific antibody, human IgG1, kappa, lambda, N297G)
light 1: B1 light 1
heavy 1: B1 heavy 1
light 2: B1 light 2 with S28A, R31W
heavy 2: not shown
B24: iPS:454557 (5601) (bispecific antibody, human IgG1, kappa, lambda, N297G)
light 1: B1 light 1 with S26Y, N31R, N32Y, Y33S, T72A
heavy 1: B1 heavy 1 with R105E, F107S, G111H, H113K, K370E
light 2: B1 light 2
heavy 2: not shown

What was measured:
human PAC1 receptor = target: T1, human PAC1 receptor; assay: cell-based or functional assay
human CGRP receptor = human CGRP receptor (human, UniProt Q16602 23-461; O60894 27-148); assay: cell-based or functional assay
human CGRP receptor, sequence (Q16602 23-461 limits assumed, chain 1 of 2): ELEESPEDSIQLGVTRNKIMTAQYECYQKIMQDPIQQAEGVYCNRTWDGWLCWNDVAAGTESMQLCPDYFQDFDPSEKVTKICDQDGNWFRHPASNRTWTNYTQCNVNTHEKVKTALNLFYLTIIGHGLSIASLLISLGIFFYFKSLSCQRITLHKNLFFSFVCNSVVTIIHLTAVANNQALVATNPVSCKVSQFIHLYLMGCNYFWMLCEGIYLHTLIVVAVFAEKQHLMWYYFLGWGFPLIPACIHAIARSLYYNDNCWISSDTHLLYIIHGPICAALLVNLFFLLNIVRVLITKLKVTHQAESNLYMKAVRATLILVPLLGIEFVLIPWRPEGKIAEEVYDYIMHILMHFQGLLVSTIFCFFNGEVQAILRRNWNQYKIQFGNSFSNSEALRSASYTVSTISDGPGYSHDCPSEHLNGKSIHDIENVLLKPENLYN
human CGRP receptor, sequence (O60894 27-148 limits assumed, chain 2 of 2): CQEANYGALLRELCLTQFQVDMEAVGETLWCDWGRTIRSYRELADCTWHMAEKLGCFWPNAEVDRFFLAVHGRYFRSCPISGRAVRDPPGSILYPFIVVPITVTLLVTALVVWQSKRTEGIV

Row | Binder | Fold-improvement over 29G4v22 Ab (human PAC1 receptor) [fold] | IC50 (human PAC1 receptor) [nM] | Fold-improvement over 4E4 Ab (human CGRP receptor) [fold] | IC50 (human CGRP receptor) [nM]
1 | B1 | 10.5 | 0.61 | 0.5 | 1.16
2 | B2 | 9.1 | 0.81 | 0.3 | 1.98
3 | B3 | 4.9 | 1.31 | 0.5 | 1.1
4 | B4 | 3.8 | 1.27 | 0.41 | 1.42
5 | B5 | 2.8 | 2.48 | 1.1 | 0.51
6 | B6 | 5.2 | 1.41 | 0.6 | 1.04
7 | B7 | 9.8 | 0.7 | 0.4 | 1.4
8 | B8 | 10.2 | 0.72 | 0.5 | 1.16
9 | B9 | 9.5 | 0.68 | 0.6 | 0.9
10 | B10 | 7.2 | 0.57 | 1.3 | 0.43
11 | B11 | 9.5 | 0.77 | 0.4 | 1.49
12 | B12 | 5.9 | 0.69 | 0.8 | 0.66
13 | B13 | 9.2 | 0.79 | 0.5 | 1.13
14 | B14 | 10.5 | 0.66 | 0.4 | 1.25
15 | B15 | 7.4 | 0.87 | 0.4 | 1.35
16 | B16 | 5.2 | 1.33 | 0.3 | 2.11
17 | B17 | 11.4 | 0.61 | 0.4 | 1.34
18 | B18 | 5.4 | 1.37 | 0.4 | 1.63
19 | B19 | 9.3 | 0.69 | 0.3 | 1.86
20 | B20 | 6.2 | 1.04 | 0.5 | 1.14
21 | B21 | 9.4 | 0.69 | 0.4 | 1.41
22 | B22 | 5.5 | 0.74 | 1.2 | 0.47
23 | B23 | 10.9 | 0.67 | 0.6 | 1.01
24 | B24 | 6.7 | 0.61 | 1.5 | 0.39

— patent US20220363770A1 (Amgen, published 2022)
